The results in this text go back to paper PMC4109796.

The test has as its target STAT3 (UniProt P40763). The experiment in a line: co-immunoprecipitation, immunoblot. The conditions noted are these: reference: wild-type EZH2; sites S21. Background: Immunoblotting shows a protein as a band on a membrane.

Regarding EZH2 (from UniProt Q15910) EZH2 S21A, the “binding against the reference” value is “lost”.
